# Data published in patent US20100292083A1 (Ablynx, published 2010).
# Residue numbers refer to the chain shown, from its start.
# B1: Nanobody IL6R65 (VHH)
# VHH: EVQLVESGGGLVQPGGSLRLSCAASGSIFKVNAMGWYRQAPGKGRELVAGIISGGSTNYADSVKGRFTISRDNAKNTLYLQMNSLRPEDTAVYYCAFVTTNSDYDLGRDYWGQGTLVTVSS
# notes: also called ILR65
# B2: IL6R65PMP7C4 (VHH)
# VHH: B1 VHH with S27T, I28T, K30R, V31I, A33V, G35A, S53T, G54N, N58S
# notes: Also expressed in E. coli and purified via IMAC
# B3: IL6R65PMP7D6 (VHH)
# VHH: B1 VHH with K30R, A33V, G35A, G50A, I51V, S53N, S56T, N58T
# notes: as for B2
# B4: IL6R65PMP7F4 (VHH)
# VHH: B1 VHH with S27T, I28T, A33V, G35A, S53N, N58T
# notes: as for B2
# B5: IL6R65PMP7G7 (VHH)
# VHH: B1 VHH with S27T, I28T, V31I, A33I, G35A, I51V, S53T, S56N, N58T
# notes: as for B2
# B6: IL6R65PMP7G8 (VHH)
# VHH: B1 VHH with I28T, K30R, V31I, A33V, G35A, I51V, S53N, G54D, N58T
# notes: as for B2
# Biological target: T1, IL6R on the cell-surface of TF-1 cells (UniProt P08887 20-468, limits assumed)
# T1 sequence (looked up): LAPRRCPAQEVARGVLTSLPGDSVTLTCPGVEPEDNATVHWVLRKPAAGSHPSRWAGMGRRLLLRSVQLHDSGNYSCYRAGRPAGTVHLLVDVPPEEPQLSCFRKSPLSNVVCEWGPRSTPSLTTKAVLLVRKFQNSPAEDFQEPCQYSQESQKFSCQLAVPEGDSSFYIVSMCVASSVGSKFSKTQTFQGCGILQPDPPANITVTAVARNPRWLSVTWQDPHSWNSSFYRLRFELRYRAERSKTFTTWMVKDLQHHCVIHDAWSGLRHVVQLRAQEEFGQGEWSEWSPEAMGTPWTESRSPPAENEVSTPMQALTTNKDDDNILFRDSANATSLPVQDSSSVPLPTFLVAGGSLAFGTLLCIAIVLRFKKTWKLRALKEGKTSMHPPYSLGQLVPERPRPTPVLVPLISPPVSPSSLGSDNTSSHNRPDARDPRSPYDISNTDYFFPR
# Experiment: cell-based or functional assay
row,Binder,"Inhibition of IL6-dependent proliferation of TF-1 cells (3H-thymidine incorporation), IC50"
1,B1,55000 pM
2,B2,2500 pM
3,B3,3700 pM
4,B4,5200 pM
5,B5,3500 pM
6,B6,6200 pM

# Biological target: T2, human IL6R (human, UniProt P08887 20-358, limits assumed)
# T2 construct: Antigen of the Biacore experiments
# T2 sequence (looked up): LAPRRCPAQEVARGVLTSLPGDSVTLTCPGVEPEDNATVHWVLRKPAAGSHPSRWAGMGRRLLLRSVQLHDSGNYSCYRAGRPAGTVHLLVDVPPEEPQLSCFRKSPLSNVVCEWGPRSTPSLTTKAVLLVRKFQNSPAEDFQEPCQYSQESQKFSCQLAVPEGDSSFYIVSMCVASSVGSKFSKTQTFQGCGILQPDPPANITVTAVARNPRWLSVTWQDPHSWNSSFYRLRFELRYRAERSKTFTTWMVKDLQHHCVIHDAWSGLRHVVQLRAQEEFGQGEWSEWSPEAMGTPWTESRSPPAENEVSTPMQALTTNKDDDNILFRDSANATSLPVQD
# Experiment: SPR (Biacore), purified Nanobody
# Protocol: Binding curves at different concentrations of purified Nanobody were recorded on Biacore and used to calculate values for ka, kd and Kd (Table B-4).
Binder,Kd,koff,kon,fold improvement of Kd relative to the parent molecule (IL6R65)
B1,4300 pM,0.00234 s⁻¹,539000 M⁻¹ s⁻¹,
B2,340 pM,0.000177 s⁻¹,527000 M⁻¹ s⁻¹,13 fold
B3,420 pM,0.000279 s⁻¹,672000 M⁻¹ s⁻¹,
B4,480 pM,0.000292 s⁻¹,609000 M⁻¹ s⁻¹,
B5,560 pM,0.00031 s⁻¹,550000 M⁻¹ s⁻¹,
B6,950 pM,0.000333 s⁻¹,352000 M⁻¹ s⁻¹,

# Biological target: T2, human IL6R
# Experiment: SPR (Biacore), periplasmic extract
# Protocol: Selection outputs were analyzed by picking individual colonies and growing them overnight in 1 ml 2×YT (Yeast Tryptone) medium+100 ug/ml Carbenicillin at 37 C. Nanobody containing periplasmic extracts were prepared, diluted 1/10 in PBS and subsequently tested for antigen binding in ELISA. Clones with the highest ELISA signals were sequenced and analyzed on Biacore. […] The off-rate of the best clone from the CDR3 library was 7×10e-4 s-1.
row,Binder,koff
1,B2,0.00043 s⁻¹
2,B3,0.00044 s⁻¹
3,B4,0.00026 s⁻¹
4,B5,0.00037 s⁻¹
5,B6,0.00041 s⁻¹

# Biological target: soluble IL6R in cynomolgus monkey plasma (cynomolgus monkey, UniProt A0A2K5WN54 60-396)
# Experiment: cyno plasma potency assay: competition ELISA, inhibition of human IL6 binding to soluble IL6R
# Chain of soluble IL6R in cynomolgus monkey plasma (A0A2K5WN54 entry or part of it): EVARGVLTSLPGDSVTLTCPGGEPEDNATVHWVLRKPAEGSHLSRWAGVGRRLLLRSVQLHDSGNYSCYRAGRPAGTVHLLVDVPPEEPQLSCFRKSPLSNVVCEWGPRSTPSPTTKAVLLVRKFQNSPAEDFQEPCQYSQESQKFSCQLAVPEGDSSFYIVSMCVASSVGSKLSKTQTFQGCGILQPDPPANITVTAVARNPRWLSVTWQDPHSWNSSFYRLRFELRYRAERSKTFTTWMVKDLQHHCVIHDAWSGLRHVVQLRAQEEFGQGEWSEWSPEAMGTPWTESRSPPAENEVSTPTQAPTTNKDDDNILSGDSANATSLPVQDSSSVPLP
row,Binder,IC50
1,B1,2990 pM
2,B2,80 pM
3,B3,90 pM
4,B4,90 pM
5,B5,110 pM
6,B6,140 pM

# Biological target: T3, soluble IL6R in human plasma (human, UniProt P08887 20-355, limits assumed)
# T3 sequence (looked up): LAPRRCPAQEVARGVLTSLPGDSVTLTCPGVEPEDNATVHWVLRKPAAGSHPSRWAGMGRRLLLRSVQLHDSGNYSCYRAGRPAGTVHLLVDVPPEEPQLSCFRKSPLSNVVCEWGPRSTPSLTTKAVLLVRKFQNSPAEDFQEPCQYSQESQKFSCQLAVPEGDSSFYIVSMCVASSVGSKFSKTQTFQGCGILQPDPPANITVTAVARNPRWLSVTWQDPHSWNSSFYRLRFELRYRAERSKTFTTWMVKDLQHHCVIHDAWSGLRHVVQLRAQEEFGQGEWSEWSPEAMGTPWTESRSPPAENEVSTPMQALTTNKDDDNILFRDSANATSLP
# Experiment: human plasma potency assay: competition ELISA, inhibition of human IL6 binding to soluble IL6R
# Protocol: All 5 Nanobodies and the parent Nanobody were also tested in a plasma potency assay. In this assay different concentrations of Nanobody are mixed with soluble IL6R containing plasma from either human or cynomolgus monkey and a fixed concentration of human IL6. After 1 hour of incubation the mixture is transferred to a Maxisorp plate coated with the anti-IL6R MAb BN-12 (Diaclone). The amount of IL6 bound was determined by subsequent addition of biotinylated anti-IL6 polyclonal antibody (R&D Systems) and streptavidin-HRP. TMB was used as substrate. Substrate conversion was measured at 450 nm.
row,Binder,IC50
1,B1,4930 pM
2,B2,210 pM
3,B3,190 pM
4,B4,240 pM
5,B5,220 pM
6,B6,340 pM
